Measurements taken from publication PMC3972249.

Substrate: Nc1ncnc2c1ncn2[C@@H]1O[C@H](COP(=O)(O)OP(=O)(O)OP(=O)(O)O)[C@@H](O)[C@H]1O
Experiment: KM from ATP titration in ATP:PPi exchange assay
Type: biochemical, Homo sapiens

Row | Protein | Km
1 | NEDD8-activating enzyme (NAE), catalytic subunit UBA3 I310N (Homo sapiens; I310N) (protein, recombinant human UBA3 (isoform 1) in NAE complex; with NAEα (APPBP1); NEDD8) ADGEEPEKKRRRIEELLAEKMAVDGGCGDTGDWEGRWNHVKKFLERSGPFTHPDFEPSTESLQFLLDTCKVLVIGAGGLGCELLKNLALSGFRQIHVIDMDTIDVSNLNRQFLFRPKDIGRPKAEVAAEFLNDRVPNCNVVPHFNKIQDFNDTFYRQFHIIVCGLDSIIARRWINGMLISLLNYEDGVLDPSSIVPLIDGGTEGFKGNARVILPGMTACIECTLELYPPQVNFPMCTIASMPRLPEHCIEYVRMLQWPKEQPFGEGVPLDGDDPEHIQWIFQKSLERASQYNIRGVTYRLTQGVVKRINPAVASTNAVIAAVCATEVFKIATSAYIPLNNYLVFNDVDGLYTYTFEAERKENCPACSQLPQNIQFSPSAKLQEVLDYLTNSASLQMKSPAITATLEGKNRTLYLQSVTSIEERTRPNLSKTLKELGLVDGQELAVADVTTPQTVLFKLHFTS | 20 µM
2 | NEDD8-activating enzyme (NAE), catalytic subunit UBA3 (NAEβ) (Homo sapiens) (protein, recombinant human UBA3 (isoform 1) in NAE complex; with NAEα (APPBP1); NEDD8) ADGEEPEKKRRRIEELLAEKMAVDGGCGDTGDWEGRWNHVKKFLERSGPFTHPDFEPSTESLQFLLDTCKVLVIGAGGLGCELLKNLALSGFRQIHVIDMDTIDVSNLNRQFLFRPKDIGRPKAEVAAEFLNDRVPNCNVVPHFNKIQDFNDTFYRQFHIIVCGLDSIIARRWINGMLISLLNYEDGVLDPSSIVPLIDGGTEGFKGNARVILPGMTACIECTLELYPPQVNFPMCTIASMPRLPEHCIEYVRMLQWPKEQPFGEGVPLDGDDPEHIQWIFQKSLERASQYNIRGVTYRLTQGVVKRIIPAVASTNAVIAAVCATEVFKIATSAYIPLNNYLVFNDVDGLYTYTFEAERKENCPACSQLPQNIQFSPSAKLQEVLDYLTNSASLQMKSPAITATLEGKNRTLYLQSVTSIEERTRPNLSKTLKELGLVDGQELAVADVTTPQTVLFKLHFTS | 80 µM
